Measurements reported in ChEMBL document CHEMBL1130356, “A CHROMOGENIC SUBSTRATE FOR THE CONTINUOUS ASSAY OF MAMMALIAN PHOSPHOINOSITIDE-SPECIFIC PHOSPHOLIPASE C” (Bioorg Med Chem Lett, 1997).

T1: 1-phosphatidylinositol 4,5-bisphosphate phosphodiesterase beta-1 (Homo sapiens) (UniProt Q9NQ66)
T1 sequence (whole entry): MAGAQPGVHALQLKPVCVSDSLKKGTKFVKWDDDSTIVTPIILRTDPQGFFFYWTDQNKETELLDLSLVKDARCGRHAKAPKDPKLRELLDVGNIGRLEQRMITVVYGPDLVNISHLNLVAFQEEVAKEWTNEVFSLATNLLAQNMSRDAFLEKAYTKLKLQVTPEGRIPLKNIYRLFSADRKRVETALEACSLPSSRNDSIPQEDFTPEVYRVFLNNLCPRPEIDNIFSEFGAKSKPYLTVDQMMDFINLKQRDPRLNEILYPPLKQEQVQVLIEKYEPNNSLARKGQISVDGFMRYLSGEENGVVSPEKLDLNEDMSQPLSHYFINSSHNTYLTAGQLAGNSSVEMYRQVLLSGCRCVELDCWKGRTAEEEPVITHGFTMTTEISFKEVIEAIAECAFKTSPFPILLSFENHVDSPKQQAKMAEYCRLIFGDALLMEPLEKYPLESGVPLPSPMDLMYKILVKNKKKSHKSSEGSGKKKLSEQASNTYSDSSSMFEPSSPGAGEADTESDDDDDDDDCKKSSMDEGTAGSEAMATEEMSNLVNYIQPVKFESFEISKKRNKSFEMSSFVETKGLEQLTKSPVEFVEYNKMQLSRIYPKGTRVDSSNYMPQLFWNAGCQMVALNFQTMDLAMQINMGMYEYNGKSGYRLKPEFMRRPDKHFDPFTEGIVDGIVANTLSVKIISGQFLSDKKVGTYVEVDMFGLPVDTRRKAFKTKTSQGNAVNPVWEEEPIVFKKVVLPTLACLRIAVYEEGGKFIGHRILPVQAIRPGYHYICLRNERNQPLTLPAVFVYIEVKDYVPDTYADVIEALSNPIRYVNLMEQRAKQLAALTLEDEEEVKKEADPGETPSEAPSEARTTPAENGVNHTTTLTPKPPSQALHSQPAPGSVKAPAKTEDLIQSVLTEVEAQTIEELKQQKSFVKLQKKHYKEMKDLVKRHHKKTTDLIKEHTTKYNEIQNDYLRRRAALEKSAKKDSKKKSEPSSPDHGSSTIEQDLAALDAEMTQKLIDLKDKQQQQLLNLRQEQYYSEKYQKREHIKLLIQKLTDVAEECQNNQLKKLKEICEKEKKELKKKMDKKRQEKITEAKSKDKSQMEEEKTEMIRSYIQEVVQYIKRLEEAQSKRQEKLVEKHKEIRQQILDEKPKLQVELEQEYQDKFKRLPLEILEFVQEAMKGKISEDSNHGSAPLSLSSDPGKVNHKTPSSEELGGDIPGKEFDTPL


Assays:
[1] = biological target: T1, 1-phosphatidylinositol 4,5-bisphosphate phosphodiesterase beta-1 (Homo sapiens); assay: Ratio of the kinetic constant kcat to that of KM
[2] = biological target: T1, 1-phosphatidylinositol 4,5-bisphosphate phosphodiesterase beta-1 (Homo sapiens); assay: Kinetic constant kcat against human phosphoinositide-specific phospholipase C
[3] = substrate: O=[N+]([O-])c1ccc(OP(=O)(O)O[C@@H]2[C@H](O)[C@H](O)[C@@H](OP(=O)(O)O)[C@H](OP(=O)(O)O)[C@H]2O)cc1; assay: Michaelis-Menten constant of the compound (D-isomer) was determined against human phosphoinositide-specific phospholipase C
[4] = substrate: O=[N+]([O-])c1ccc(OP(=O)(O)O[C@@H]2[C@H](O)[C@H](O)[C@@H](OP(=O)(O)O)[C@H](OP(=O)(O)O)[C@H]2O)cc1; assay: Kinetic constant Vmax against human phosphoinositide-specific phospholipase C
[5] = substrate: O=[N+]([O-])c1ccc(OP(=O)(O)O[C@@H]2[C@H](O)[C@H](O)[C@@H](OP(=O)(O)O)[C@H](OP(=O)(O)O)[C@H]2O)cc1; assay: Michaelis-Menten constant against human phosphoinositide-specific phospholipase C

Ratio [1] | k cat [2] [s⁻¹] | Molecule | Km [3] [µM] | Vmax [4] [µM/min/mg] | Km [5] [µM]
83000 | 112 | O=[N+]([O-])c1ccc(OP(=O)(O)O[C@@H]2[C@H](O)[C@H](O)[C@@H](OP(=O)(O)O)[C@H](OP(=O)(O)O)[C@H]2O)cc1 (racemic) | – | – | –
– | – | 1-phosphatidylinositol 4,5-bisphosphate phosphodiesterase beta-1 (Homo sapiens), Q9NQ66 (protein) MAGAQPGVHALQLKPVCVSDSLKKGTKFVKWDDDSTIVTPIILRTDPQGFFFYWTDQNKETELLDLSLVKDARCGRHAKAPKDPKLRELLDVGNIGRLEQRMITVVYGPDLVNISHLNLVAFQEEVAKEWTNEVFSLATNLLAQNMSRDAFLEKAYTKLKLQVTPEGRIPLKNIYRLFSADRKRVETALEACSLPSSRNDSIPQEDFTPEVYRVFLNNLCPRPEIDNIFSEFGAKSKPYLTVDQMMDFINLKQRDPRLNEILYPPLKQEQVQVLIEKYEPNNSLARKGQISVDGFMRYLSGEENGVVSPEKLDLNEDMSQPLSHYFINSSHNTYLTAGQLAGNSSVEMYRQVLLSGCRCVELDCWKGRTAEEEPVITHGFTMTTEISFKEVIEAIAECAFKTSPFPILLSFENHVDSPKQQAKMAEYCRLIFGDALLMEPLEKYPLESGVPLPSPMDLMYKILVKNKKKSHKSSEGSGKKKLSEQASNTYSDSSSMFEPSSPGAGEADTESDDDDDDDDCKKSSMDEGTAGSEAMATEEMSNLVNYIQPVKFESFEISKKRNKSFEMSSFVETKGLEQLTKSPVEFVEYNKMQLSRIYPKGTRVDSSNYMPQLFWNAGCQMVALNFQTMDLAMQINMGMYEYNGKSGYRLKPEFMRRPDKHFDPFTEGIVDGIVANTLSVKIISGQFLSDKKVGTYVEVDMFGLPVDTRRKAFKTKTSQGNAVNPVWEEEPIVFKKVVLPTLACLRIAVYEEGGKFIGHRILPVQAIRPGYHYICLRNERNQPLTLPAVFVYIEVKDYVPDTYADVIEALSNPIRYVNLMEQRAKQLAALTLEDEEEVKKEADPGETPSEAPSEARTTPAENGVNHTTTLTPKPPSQALHSQPAPGSVKAPAKTEDLIQSVLTEVEAQTIEELKQQKSFVKLQKKHYKEMKDLVKRHHKKTTDLIKEHTTKYNEIQNDYLRRRAALEKSAKKDSKKKSEPSSPDHGSSTIEQDLAALDAEMTQKLIDLKDKQQQQLLNLRQEQYYSEKYQKREHIKLLIQKLTDVAEECQNNQLKKLKEICEKEKKELKKKMDKKRQEKITEAKSKDKSQMEEEKTEMIRSYIQEVVQYIKRLEEAQSKRQEKLVEKHKEIRQQILDEKPKLQVELEQEYQDKFKRLPLEILEFVQEAMKGKISEDSNHGSAPLSLSSDPGKVNHKTPSSEELGGDIPGKEFDTPL | 1350 | 78.5 | 2700
